Measurements published in patent publication US20260209325A1 (SCHOLAR ROCK, published 2026).
Blank lines part the entries; values can stand above or below the binder they belong to.

Key:
human pro-myostatin [1] = target: T1, human pro-myostatin (human, UniProt O14793 24-375, biotinylated (in the SPR assay)); test: cell-based or functional assay
[2] = target: recombinant human latent myostatin (human, UniProt O14793 24-375, biotinylated (in the Octet pH assay only)); test: cell-based or functional assay
human pro-myostatin [3] = target: T1, human pro-myostatin; test: SPR Biacore 8K, biotin-antigen captured
murine pro-myostatin [4] = target: T2, murine pro-myostatin (mouse, UniProt O08689 25-376, biotinylated (in the SPR assay)); test: SPR Biacore 8K, biotin-antigen captured
T2 construct: also called proGDF8 (mouse); mouse pro-myostatin

cyno pro-myostatin [5] = target: T3, cyno pro-myostatin (cynomolgus monkey, Biotinylated for capture in the SPR assay (site not stated). The native form is a disulfide-linked homodimer, partly furin-cleaved; one chain is given.); test: SPR Biacore 8K, biotin-antigen captured
T3 construct: also called proGDF8 (cynomolgus); cynomolgus monkey pro-myostatin

human pro-myostatin [6] = target: T1, human pro-myostatin; test: plate binding assay, OD 450 nm, antibody titrated 0.0003 to 100 nM, panel 'Hu-Pro-GDF-8 Plate 2' (method not described in the text)
murine pro-myostatin [7] = target: T2, murine pro-myostatin; test: plate binding assay, OD 450 nm, antibody titrated 0.0003 to 100 nM, panel 'Mu-Pro-GDF-8 Plate 2' (method not described in the text)
cyno pro-myostatin [8] = target: T3, cyno pro-myostatin; test: plate binding assay, OD 450 nm, antibody titrated 0.0003 to 100 nM, panel 'Cyno-Pro-GDF-8 Plate 2' (method not described in the text)
cyno pro-myostatin [9] = target: T3, cyno pro-myostatin; test: plate binding assay, absorbance at 450 nm, antibody titrated 100 to about 0.002 nM, panel 'Cyno Pure Pro-GDF-8' (method not described in the text)
human pro-myostatin [10] = target: T1, human pro-myostatin; test: plate binding assay, absorbance at 450 nm, antibody titrated 100 to about 0.002 nM, panel 'Human Pure Pro-GDF-8' (method not described in the text)
murine pro-myostatin [11] = target: T2, murine pro-myostatin; test: plate binding assay, absorbance at 450 nm, antibody titrated 100 to about 0.002 nM, panel 'Murine Pure Pro-GDF-8' (method not described in the text)

- IC50 (nM) Pro + Furin (human pro-myostatin [1]): 0.143 nM
- IC50 (nM) Latent + mTLL2 [2]: 0.386 nM
- Kd (human pro-myostatin [3]): 0.101 nM
- koff (human pro-myostatin [3]): 0.000318 s⁻¹
- kon (human pro-myostatin [3]): 3.16e+06 M⁻¹ s⁻¹
- Kd (murine pro-myostatin [4]): 0.187 nM
- koff (murine pro-myostatin [4]): 0.000608 s⁻¹
- kon (murine pro-myostatin [4]): 3.24e+06 M⁻¹ s⁻¹
- Kd (cyno pro-myostatin [5]): 0.106 nM
- koff (cyno pro-myostatin [5]): 0.000365 s⁻¹
- kon (cyno pro-myostatin [5]): 3.45e+06 M⁻¹ s⁻¹
- EC50 (read off the curve) (human pro-myostatin [6]): ~0.2 nM
- EC50 (read off the curve) (murine pro-myostatin [7]): ~0.2 nM
- EC50 (read off the curve) (cyno pro-myostatin [8]): ~0.2 nM
B1: Ab121 (antibody, human IgG4 S228P, kappa, V domains shown)
VH: QVTLRESGPALVKPTQTLTLTCTVSGFSFSTSGMVVNWIRQPPGKALEWLAMIDWDADNIVYNSALKSRLTISKDTSKNQVVLTMTNMDPVDTATYYCAKDTGSGWFDAFDIWGQGTMVTVSS
VL: DIVMTQSPDSLAVSLGERATINCKSSQSVLYSSTNQNFLAWYQQKPGQPPKLLIYQASTLQNGVPDRFSGSGSGTDFTLTISSLQAEDVAVYYCQQYLTTPYTFGGGTKVEIKR

- IC50 (nM) Pro + Furin (human pro-myostatin [1]): 0.363 nM
- IC50 (nM) Latent + mTLL2 [2]: 0.22 nM
- Kd (human pro-myostatin [3]): 0.1 nM
- koff (human pro-myostatin [3]): 0.000381 s⁻¹
- kon (human pro-myostatin [3]): 3.82e+06 M⁻¹ s⁻¹
- Kd (murine pro-myostatin [4]): 0.145 nM
- koff (murine pro-myostatin [4]): 0.000518 s⁻¹
- kon (murine pro-myostatin [4]): 3.58e+06 M⁻¹ s⁻¹
- Kd (cyno pro-myostatin [5]): 0.076 nM
- koff (cyno pro-myostatin [5]): 0.000322 s⁻¹
- kon (cyno pro-myostatin [5]): 4.21e+06 M⁻¹ s⁻¹
- EC50 (read off the curve) (cyno pro-myostatin [9]): ~0.7 nM
- EC50 (read off the curve) (human pro-myostatin [10]): ~0.5 nM
- EC50 (read off the curve) (murine pro-myostatin [11]): ~0.6 nM
B2: Ab104 (antibody, human IgG4 S228P, kappa, V domains shown)
VH: EVQLVESGGGLVQPGGSLRLSCAASGSAFSSYGMSWVRQAPGKGLELVASINSNGGSTYYPDSVKGRFTISRDNAKNSLYLQMNSLRAEDTAVYYCARDLLVKFLSWSHYYGMDVWGQGTTVTVSS
VL: DIVMTQSPLSLPVTPGEPASISCRSSQSLLHSSGHNFLHWYLQKPGQSPQLLIYEVSNRVSGVPDRFSGSGSGTDFTLKISRVEAEDVGVYYCMQQTQYPPTFGGGTKVEIKR
